Measurements as given in publication PMC2141740 (The Journal of Cell Biology, 1998).

Target: T1, HA-tagged human TGF-β type I receptor (TβRI-HA) (human, UniProt P36897 34-503)
T1 sequence (looked up): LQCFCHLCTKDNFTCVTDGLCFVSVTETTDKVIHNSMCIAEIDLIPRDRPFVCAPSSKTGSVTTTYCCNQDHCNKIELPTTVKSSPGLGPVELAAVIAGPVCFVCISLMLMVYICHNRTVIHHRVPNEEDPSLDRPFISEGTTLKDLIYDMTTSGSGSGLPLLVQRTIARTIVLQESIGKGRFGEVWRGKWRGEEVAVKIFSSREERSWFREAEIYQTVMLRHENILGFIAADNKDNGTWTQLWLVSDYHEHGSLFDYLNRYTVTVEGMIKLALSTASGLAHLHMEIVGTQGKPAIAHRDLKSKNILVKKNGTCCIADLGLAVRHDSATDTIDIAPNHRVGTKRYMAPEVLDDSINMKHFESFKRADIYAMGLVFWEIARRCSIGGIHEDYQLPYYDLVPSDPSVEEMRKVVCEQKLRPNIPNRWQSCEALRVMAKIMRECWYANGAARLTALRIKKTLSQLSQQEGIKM
Assay: antibody-mediated immunofluorescence copatching

B1: myc-tagged human TGF-β type I receptor (TβRI-myc) (receptor, UniProt P36897 34-503, looked up)
chain: T1 sequence (looked up)
- stoichiometry N: 2
